Experiment [1] has as its target full-length human Lck-mEGFP (HEK293T) (UniProt P06239). The experiment can be described thus: sFCCS (line-scan fluorescence cross-correlation spectroscopy) in live cells. The note with it: HEK293T cells coexpressing mCherry2-tagged CD4 construct with wild-type Lck-mEGFP; read off a plot.
In experiment [2] the target is full-length human CD4 with the amphipathic α-helix replaced by a (Gly-Ser)n linker, mCherry2-tagged (human) (UniProt P01730). The experiment can be described thus: scanning fluorescence cross-correlation spectroscopy (sFCCS); live HEK293T cells on glass coverslips coexpressing mCherry2- and mEGFP-tagged proteins, one coreceptor; line scans at the basal cell surface; cross-correlation quotient q normalised to the tandem control (100%) and Lck^CS/Lck^CS (0%).

The target in experiment [3] is full-length human CD4 with the unstructured C-terminal tail replaced by a (Gly-Ser)n linker, mCherry2-tagged (human) (UniProt P01730). The experiment is described as above.
Experiment [4] deals with full-length human CD4 with both the basic-rich region and the amphipathic α-helix replaced by (Gly-Ser)n linkers, mCherry2-tagged (human) (UniProt P01730). The experiment is described as above.

Consider “full-length human CD4-mCherry2 (HEK293T) (from UniProt P01730) CQC>SQS (both Zn2+ clasp Cys to Ser; no residue numbers printed)”, for which the other: normalized cross-correlation quotient q (occupancy) in experiment [1] amounted to 1%.
As for “full-length human Lck-mEGFP (HEK293T) (from UniProt P06239 1-509) (enzyme)”, the decrease in CD4/Lck occupancy in experiment [2] is 27%; in experiment [3] it was 14%; in experiment [4], 28%.

The values are drawn from publication PMC9894195.
